We go through 167 variants from the RNAGym collection of RNA variant scans (doi:10.1093/nar/gkz1192).

First the molecules themselves.
B1: CPEB3 Ribozyme (parent)
chain: UAACAGGGGGCCACAGCAGAAGCGUUCACGUCGCAGCCCCUGUCAGAUUCUGGUGAAUCUGCGAAUUCUGCUGUAUAUCUC

Variants of B1 are the subject of the data set. In words: self-cleavage, relative activity (ratio to wild type); higher = more cleavage; in vitro, sequencing. A digest of the protocol: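 Libraries of CPEB3 self-cleaving ribozyme mutants came from rounds of error-prone PCR and carried barcodes, which DNA sequencing matched to variants. In vitro transcription used T7 RNA polymerase at 37°C for 5 hours, with a further 15 min in DNase I before EDTA stopped the reaction; the ribozymes cleaved during both steps. The RNA was reverse transcribed with template switching and sequenced on Illumina. Relative activity is the cleaved/total read fraction of a variant divided by that of the unmutated ribozyme, averaged over three batches with at least 5 reads.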
As for G52A U80C, the self-cleavage was 1.18.

As for A64C U66C, the self-cleavage is 0.24.

Turning to C17U U43A, the self-cleavage was determined as 0.98.

Take G8U U51C: the self-cleavage amounted to 0.08.

As for A28G U69G, the self-cleavage is 0.48.

Turning to A18C A56G, the self-cleavage was 0.17.

As for G9U U26G, the self-cleavage stood at 0.09.

With U48G U78C, the self-cleavage stood at 0.59.

With A28G A56C, the self-cleavage was 0.31.

For A35G C40U, the self-cleavage came to 1.23.

As to G16A A64G, the self-cleavage was 0.45.

In the case of A47G U72A, the self-cleavage is 0.64.

For U26G A65G, the self-cleavage is 0.35.

In the case of G22A U74C, the self-cleavage stood at 0.5.

For the variant U1C A45C, the self-cleavage was 0.16.

Consider U48C A57G, for which the self-cleavage was found to be 1.11.

Regarding A20U C27G, the self-cleavage amounted to 0.19.

As for A15G U76C, the self-cleavage is 0.89.

Consider A3G C37A, for which the self-cleavage turned out to be 0.36.

In the case of U25G U43A, the self-cleavage is 0.58.

For A20G C40A, the self-cleavage was 0.23.

With A20G C40U, the self-cleavage came to 0.46.

For the variant A35G A45G, the self-cleavage is 1.26.

Regarding G24A A35G, the self-cleavage was 0.38.

C29U U66C: the self-cleavage is 0.37.

A5C U66C: the self-cleavage amounted to 0.54.

In the case of U54G U67C, the self-cleavage is 0.32.

With C32A U49A, the self-cleavage is 0.11.

In the case of U66A U78A, the self-cleavage was found to be 0.38.

Turning to A2U A64U, the self-cleavage was determined as 0.28.

Regarding A2U A64G, the self-cleavage turned out to be 0.83.

For G61U U76A, the self-cleavage worked out at 0.39.

U1G U25C: the self-cleavage was determined as 0.13.

For the variant A3U C32G, the self-cleavage stood at 0.47.

On to C32U U51A, for which the self-cleavage was 0.19.

With U49C U58C, the self-cleavage worked out at 0.24.

As to C12U G36C, the self-cleavage worked out at 0.17.

Take A35U A47C: the self-cleavage came to 0.4.

Take A15U C40A: the self-cleavage came out at 0.31.

As for A20G U31G, the self-cleavage was 0.58.

Take C29A A47G: the self-cleavage was found to be 0.4.

For the variant U25C G42C, the self-cleavage is 0.33.

As to A3U U51C, the self-cleavage stood at 1.15.

Take G24C U25A: the self-cleavage was found to be 0.21.

Turning to C12U A64U, the self-cleavage was determined as 0.83.

On to G10A A65G, for which the self-cleavage stood at 0.12.

Turning to G61U, the self-cleavage came out at 0.6.

G33U A45C: the self-cleavage is 0.12.

For G7U A13G, the self-cleavage came to 0.18.

For G10A C17A, the self-cleavage is 0.23.

C44U A75U: the self-cleavage came to 0.31.

Consider U26A U76C, for which the self-cleavage worked out at 0.74.

With U60C U72G, the self-cleavage was 0.39.

As to G9A C17G, the self-cleavage is 0.1.

With A5G U76G, the self-cleavage came to 0.6.

On to C34A A57G, for which the self-cleavage stood at 0.35.

Consider A45G U78C, for which the self-cleavage turned out to be 0.76.

G24A U54C: the self-cleavage is 0.27.

As to G24A U74A, the self-cleavage was found to be 0.18.

G46C A64U: the self-cleavage worked out at 0.11.

For C17U A57G, the self-cleavage came to 0.51.

Regarding C71A U78G, the self-cleavage was 0.11.

Regarding C29A U78A, the self-cleavage amounted to 0.27.

In the case of A20G A57G, the self-cleavage is 0.7.

As for U41G U69C, the self-cleavage was found to be 0.19.

In the case of A65G A75U, the self-cleavage came out at 0.41.

Turning to A2G U31C, the self-cleavage is 0.41.

With C23G U72C, the self-cleavage came to 0.13.

In the case of G8A C29U, the self-cleavage was determined as 0.24.

In the case of A57G G73A, the self-cleavage came to 1.25.

As for A13U C17G, the self-cleavage was found to be 0.48.

Regarding U41G U74A, the self-cleavage is 0.37.

Consider U54G A57U, for which the self-cleavage was determined as 0.25.

In the case of U25C C79U, the self-cleavage was found to be 0.34.

G24A U72A: the self-cleavage was determined as 0.29.

As to A18C U43G, the self-cleavage worked out at 0.07.

For A3G U54A, the self-cleavage was 0.98.

For the variant U25A A35G, the self-cleavage is 0.31.

As to U74C U78A, the self-cleavage was determined as 1.29.

Consider U49A U54G, for which the self-cleavage stood at 0.27.

U1A U43C: the self-cleavage stood at 0.58.

Take G8C U26C: the self-cleavage worked out at 0.08.

G24A C81A: the self-cleavage was 0.16.

Take G9U A21G: the self-cleavage turned out to be 0.22.

For the variant A15C C17U, the self-cleavage was determined as 0.35.

Regarding C50U A65G, the self-cleavage turned out to be 0.4.

With A20U U60A, the self-cleavage was determined as 0.41.

In the case of G33A U74A, the self-cleavage is 0.33.

Regarding G7C U72G, the self-cleavage worked out at 0.27.

As for C4A G6A, the self-cleavage was determined as 0.43.

For the variant C40U A77G, the self-cleavage stood at 0.58.

Turning to A5U G52A, the self-cleavage came to 1.1.

For C12U U41A, the self-cleavage is 0.24.

Consider A18G U72A, for which the self-cleavage worked out at 0.35.

For A21U U26C, the self-cleavage worked out at 0.29.

In the case of C44U A65G, the self-cleavage worked out at 0.13.

For A13C U51G, the self-cleavage was determined as 0.88.

For the variant C37G G70C, the self-cleavage stood at 0.2.

As for U26A C40U, the self-cleavage was 0.59.

U49C C68U: the self-cleavage worked out at 0.24.

As to U41C U49C, the self-cleavage came out at 0.5.

Regarding U31C G36A, the self-cleavage was 0.13.

As to A57C, the self-cleavage was 0.48.

On to G33A A47G, for which the self-cleavage came out at 0.4.

For A45G A56U, the self-cleavage amounted to 0.4.

Take U49A A77G: the self-cleavage came out at 0.46.

Consider U48C U69C, for which the self-cleavage stood at 0.32.

For C38A U66A, the self-cleavage stood at 0.12.

In the case of A3U C4U, the self-cleavage came to 1.17.

Turning to G9A A47U, the self-cleavage came to 0.06.

For A35U C81U, the self-cleavage worked out at 0.61.

As for U1C U49A, the self-cleavage is 0.61.

A18U U51C: the self-cleavage was 0.42.

With A18G C39G, the self-cleavage stood at 0.21.

Regarding A28U U43A, the self-cleavage is 1.

In the case of C68G U69C, the self-cleavage was 0.27.

Regarding A18G G61A, the self-cleavage came out at 0.3.

Regarding A20G U78C, the self-cleavage worked out at 0.85.

In the case of U26A G52C, the self-cleavage is 1.

Turning to U43G C81U, the self-cleavage was 0.08.

A21G G30A: the self-cleavage was found to be 0.32.

Take A13G U60A: the self-cleavage amounted to 0.43.

For A35G U51C, the self-cleavage came out at 1.27.

Regarding A56U U74A, the self-cleavage is 1.17.

Regarding G16C G52U, the self-cleavage worked out at 0.48.

Turning to A57G A75G, the self-cleavage was found to be 0.74.

As to C59U U69A, the self-cleavage was 0.41.

For A35C U60C, the self-cleavage stood at 0.48.

In the case of A15U C17U, the self-cleavage came to 0.21.

Turning to G46U G73A, the self-cleavage worked out at 0.81.

For the variant G33A U54A, the self-cleavage is 0.18.

For the variant A18G A47G, the self-cleavage came out at 0.66.

As for G10C U43A, the self-cleavage came out at 0.38.

For the variant U31C G46A, the self-cleavage was found to be 0.15.

In the case of A21U U66C, the self-cleavage came to 0.33.

For G10A C27G, the self-cleavage turned out to be 0.16.

With G10A A64U, the self-cleavage was 0.15.

On to A56U U78A, for which the self-cleavage was found to be 0.95.

Consider G9A U43C, for which the self-cleavage worked out at 0.29.

U48C A56G: the self-cleavage amounted to 0.38.

With U26C C62U, the self-cleavage is 0.16.

For the variant C32A C68U, the self-cleavage amounted to 0.22.

As to C23U A45C, the self-cleavage came to 0.45.

In the case of G24A U49A, the self-cleavage is 0.39.

For the variant G9A C32U, the self-cleavage was 0.2.

For G33C U69A, the self-cleavage amounted to 0.07.

Turning to G53C A64U, the self-cleavage was found to be 0.42.

For C34U G63A, the self-cleavage amounted to 0.27.

Consider U51A U76G, for which the self-cleavage worked out at 1.09.

Consider C23G U66C, for which the self-cleavage worked out at 0.15.

On to G19A A28G, for which the self-cleavage came out at 0.2.

Turning to A15G A21C, the self-cleavage was determined as 0.35.

Turning to C34G C59G, the self-cleavage is 0.14.

In the case of G30U U72A, the self-cleavage is 0.22.

As to C38U U69A, the self-cleavage was found to be 0.53.

For the variant A28C C81U, the self-cleavage is 0.67.

On to A13G C27U, for which the self-cleavage was found to be 0.26.

Turning to A57C U66C, the self-cleavage came out at 0.16.

Take C17G A56G: the self-cleavage is 0.38.

Regarding C79U U80A, the self-cleavage came out at 1.24.

Regarding U51C U76C, the self-cleavage stood at 1.07.

On to C38U G46A, for which the self-cleavage is 0.24.

For G7A C32U, the self-cleavage is 0.09.

As for C39A U80C, the self-cleavage came out at 0.26.

As to C38G A75G, the self-cleavage stood at 0.27.

Consider U67G U72C, for which the self-cleavage amounted to 0.14.

On to U41A C79U, for which the self-cleavage turned out to be 0.41.
